Experimental data as given in PMC11169542, “A probe for NIR-II imaging and multimodal analysis of early Alzheimer’s disease by targeting CTGF” (Nature Communications, 2024).
Ends that are not written are not given here.

What was measured:
CTGF [1] = experiment: Quantitating CTGF in DGC-labelled cells by ICP-MS; type: cell-based
Description: After U87MG, SH-SY5Y, and CTX TNA2 cells were imaged by a laser confocal microscopy system, these cells labeled with DGC were quantitatively analyzed by an ICP-MS system (Thermo Elemental X7, USA). Each cell group in the glass vials was digested by adding 5 mL aqua regia (HCl: HNO3 = 3:1) overnight. Subsequently, the aqua regia was heated to evaporate to the last drop to be diluted by a mixture of 2% HNO3 and 1% HCl. A standard curve of Au was made to quantify the concentration of Au in different cells. ICP-MS was used to test the Au signal in triplicates.

CTGF [2] = molecular target: T1, CTGF (Mus musculus, UniProt P29268); experiment: ICP-MS of Au content in DGC-labelled mouse brain sections; design: species or system APP/PS1 and wild-type C57BL/6J mice
T1 construct: brain sections of the age-matched wild-type C57BL/6J mice were used as controls; from tissue; host or cells: brain of APP/PS1 transgenic and wild-type C57BL/6J mice (sections, living animal, perfused isolated brain)
T1 sequence (P29268 26-348): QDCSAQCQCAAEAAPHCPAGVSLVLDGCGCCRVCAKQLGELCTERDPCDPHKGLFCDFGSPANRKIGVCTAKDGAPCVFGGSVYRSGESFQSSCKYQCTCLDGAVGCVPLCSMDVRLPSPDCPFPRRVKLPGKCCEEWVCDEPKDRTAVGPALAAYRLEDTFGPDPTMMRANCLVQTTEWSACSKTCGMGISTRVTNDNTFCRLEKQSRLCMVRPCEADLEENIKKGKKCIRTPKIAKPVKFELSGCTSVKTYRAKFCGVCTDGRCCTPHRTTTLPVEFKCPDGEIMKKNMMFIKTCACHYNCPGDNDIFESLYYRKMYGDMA
Description: The DGC in the brain section was measured by ICP-MS. Briefly, the brain sections were digested with 5 mL mix solution (HNO3 and H2O2 = 3:1) overnight. Then, each section was digested at a mild boiling temperature until the solution was evaporated to 0.1–0.2 mL and added 5 mL aqua regia (HCl: HNO3 = 3:1) overnight. Then each section was digested at a mild boiling temperature until the solution was evaporated to 0.1– 0.2 mL and diluted by 2% HNO3 and 1% HCl to the final volume.

[3] = Effect of DGC on hematology of mice; type: in vivo, C57BL/6J mice; conditions: for Mean hemoglobin content of red blood cells (MCH): in pg (unit assumed)
Description: In order to clarify the NIR-II signal in AD brains when in vivo imaging is arisen from the DGC probe that bound to CTGF, we selected 3-month-old APP/PS1 mice representing early-stage AD and the age-matched WT mice as control to performed ex vivo multimodal analysis of the brain sections. […] To exclude the influence of vascular retention, we emptied the cerebral vessels by cardiac perfusion and performed ex vivo imaging of the brains. […] For brain sections made from AD mice after tail vein injection of DGC, the red fluorescence observation and LA-ICP-TOF-MS of DGC, as well as a POD-like catalysis test were performed. […] In Fig. 6c, the colocalization of DGC (red fluorescence) and CTGF (green fluorescence) on the ex vivo brain sections confirmed the specificity of DGC targeting CTGF in vivo. To further identify the cellular target of DGC in the brain of APP/PS1 mice, we carried out immunofluorescence staining on the ex vivo brain sections after tail vein injection of DGC where cell-specific fluorescent antibodies for microglia (Iba 1), neurons (NeuN), vascular endothelial cell (CD31) and reactive astrocytes (GFAP) were applied. In Fig. 6d, […] co-localizes with GFAP-positive active astrocytes and CD31-positive microvessels, but not with neurons or microglia. […] The biosafety of DGC in C57BL/6J mice under the NIR-II imaging condition was evaluated by blood tests (blood cells and biochemical analysis) and organ pathological analysis (H&E staining).

[4] = DGC group, mean of 3 mice, in 10^9/L (unit assumed)
[5] = DGC group, mean of 3 mice, in % (unit assumed)
[6] = DGC group, mean of 3 mice, in fL (unit assumed)
[7] = DGC group, mice 1, in fL (unit assumed)
[8] = DGC group, mice 2, in fL (unit assumed)
[9] = DGC group, mice 3, in fL (unit assumed)

For “DGC: CTGF-targeting peptide-coated gold nanocluster: one Au26 gold nanocluster coated by eight DAG cyclic peptides, NIR-II and red fluorescence (CDAGRKQKC; also: cyclic peptide, ring not given here, eight peptides on one Au26 nanocluster via Cys Au-S bonds)”, the “ICP-MS DGC (Au) content per cell” value (CTGF [1]; DGC-labelled CTX TNA2 cells, replicate 1) was 1.359, the “ICP-MS DGC (Au) content per cell” value (CTGF [1]; DGC-labelled CTX TNA2 cells, replicate 2) was 1.246 and the “ICP-MS DGC (Au) content per cell” value (CTGF [1]; DGC-labelled CTX TNA2 cells, replicate 3) was 1.418. The “ICP-MS DGC (Au) content per cell” value (CTGF [1]; DGC-labelled SH-SY5Y cells, replicate 1) was 3.579, the “ICP-MS DGC (Au) content per cell” value (CTGF [1]; DGC-labelled SH-SY5Y cells, replicate 2) was 3.885 and the “ICP-MS DGC (Au) content per cell” value (CTGF [1]; DGC-labelled SH-SY5Y cells, replicate 3) was 3.913. The “ICP-MS DGC (Au) content per cell” value (CTGF [1]; DGC-labelled U87MG cells, replicate 1) was 9.5834, the “ICP-MS DGC (Au) content per cell” value (CTGF [1]; DGC-labelled U87MG cells, replicate 2) was 9.979 and the “ICP-MS DGC (Au) content per cell” value (CTGF [1]; DGC-labelled U87MG cells, replicate 3) was 9.837. For the same substance, the “ICP-MS Au content per section” value (CTGF [2]; 3-month-old APP/PS1 mouse brain section incubated with DGC, section 1) was 36.3, the “ICP-MS Au content per section” value (CTGF [2]; 3-month-old APP/PS1 mouse brain section incubated with DGC, section 2) was 50.92 and the “ICP-MS Au content per section” value (CTGF [2]; 3-month-old APP/PS1 mouse brain section incubated with DGC, section 3) was 74.61. The “ICP-MS Au content per section” value (CTGF [2]; 9-month-old APP/PS1 mouse brain section incubated with DGC, section 1) was 87.62, the “ICP-MS Au content per section” value (CTGF [2]; 9-month-old APP/PS1 mouse brain section incubated with DGC, section 2) was 82.72 and the “ICP-MS Au content per section” value (CTGF [2]; 9-month-old APP/PS1 mouse brain section incubated with DGC, section 3) was 97.01. For the same substance, the “ICP-MS Au content per section” value (CTGF [2]; WT mouse brain section incubated with DGC, section 1) was 11.2, the “ICP-MS Au content per section” value (CTGF [2]; WT mouse brain section incubated with DGC, section 2) was 23.11 and the “ICP-MS Au content per section” value (CTGF [2]; WT mouse brain section incubated with DGC, section 3) was 12.01. The “Basophil granulocyte count (Bas#)” value ([3]; C57BL/6J mice, 20 mg/kg DGC, n = 3, normal range 0.00 - 0.12) was 0.02 ± 0.01 109/L, the “Eosinophil granulocyte count (Eos#)” value ([3]; C57BL/6J mice, 20 mg/kg DGC, n = 3, normal range 0.00 - 0.51) was 0.04 ± 0.02 109/L and the “Percentage of Basophil granulocyte (Bas%)” value ([3]; C57BL/6J mice, 20 mg/kg DGC, n = 3, normal range 0.0 - 1.5) was 0.27 ± 0.06%. For the same substance, the “Percentage of eosinophil granulocyte (Eos%)” value ([3]; C57BL/6J mice, 20 mg/kg DGC, n = 3, normal range 0.0 - 7.5) was 0.47 ± 0.23%, the “Monocytes count (Mon#)” value ([3]; C57BL/6J mice, 20 mg/kg DGC, n = 3, normal range 0.04 - 1.40) was 0.25 ± 0.1 109/L and the “Percentage of monocytes (Mon%)” value ([3]; C57BL/6J mice, 20 mg/kg DGC, n = 3, normal range 0.9 - 18.0) was 3.07 ± 0.84%. For the same substance, the “Percentage of neutrophil (Neu%)” value ([3]; C57BL/6J mice, 20 mg/kg DGC, n = 3, normal range 6.5 - 50.0) was 13.2 ± 1.31%, the “Percentage of lymphocyte (Lym%)” value ([3]; C57BL/6J mice, 20 mg/kg DGC, n = 3, normal range 40.0 - 92.0) was 83 ± 2.08% and the “Mean concentration of red blood cell hemoglobin (MCHC)” value (“Mean concentration” for short) ([3]; DGC group, mean of 3 mice) was 315.67 ± 5.69. The “Width of platelet distribution (PDW)” value ([3]; DGC group, mean of 3 mice) was 15.23 ± 0.25, the “Basophil granulocyte count (Bas#)” value [3, 4] was 0.02 ± 0.01 and the “Eosinophil granulocyte count (Eos#)” value [3, 4] was 0.04 ± 0.02. The “Lymphocyte count (Lym#)” value [3, 4] was 6.65 ± 0.78, the “Monocytes count (Mon#)” value [3, 4] was 0.25 ± 0.1 and the “Neutrophil count (Neu#)” value [3, 4] was 1.07 ± 0.24. For the same substance, the “Platelet count (PLT)” value [3, 4] was 1228.67 ± 179.01, the “White blood cell count (WBC)” value [3, 4] was 8.03 ± 1.12 and the “Red blood cell count (RBC)” value ([3]; DGC group, mean of 3 mice, in 10^12/L (unit assumed)) was 10.16 ± 0.42. The “Coefficient of variation of red blood cell distribution width (RDW-CV)” value [3, 5] was 13.13 ± 1, the “Hematocrit (HCT)” value [3, 5] was 51.2 ± 1.93 and the “Mean corpuscular volume (MCV)” value [3, 6] was 50.4 ± 0.17. For the same substance, the “Mean platelet volume (MPV)” value [3, 6] was 5.53 ± 0.15, the “Standard deviation of red blood cell distribution width (RDW-SD)” value [3, 6] was 27.8 ± 2.1 and the “Hemoglobin (HGB)” value ([3]; DGC group, mean of 3 mice, in g/L (unit assumed)) was 161.67 ± 8.02. For the same substance, the “Mean hemoglobin content of red blood cells (MCH)” value (from here on “Mean hemoglobin content”) ([3]; DGC group, mean of 3 mice) was 15.93 ± 0.25, the “Mean concentration” value ([3]; DGC group, mice 1) was 311 and the “Mean corpuscular volume (MCV)” value [3, 7] was 50.5. The “Mean platelet volume (MPV)” value [3, 7] was 5.7, the “Mean hemoglobin content” value ([3]; DGC group, mice 1) was 15.7 and the “Mean concentration” value ([3]; DGC group, mice 2) was 322. The “Mean corpuscular volume (MCV)” value [3, 8] was 50.2, the “Mean platelet volume (MPV)” value [3, 8] was 5.4 and the “Mean hemoglobin content” value ([3]; DGC group, mice 2) was 16.2. For the same substance, the “Mean concentration” value ([3]; DGC group, mice 3) was 314, the “Mean corpuscular volume (MCV)” value [3, 9] was 50.5 and the “Mean platelet volume (MPV)” value [3, 9] was 5.5. The “Mean hemoglobin content” value ([3]; DGC group, mice 3) was 15.9.
